In paper PMC12459221, “A flexible, allosteric loop regulates protein activity and rewires electrostatics” (Protein Science : A Publication of the Protein Society, 2025):

Substrate: C=C(O[C@@H]1C=C(C(=O)O)C=C[C@H]1O)C(=O)O
Assay: enzyme kinetics, triplicate
Format: biochemical, Saccharomyces cerevisiae
Conditions: pH 6.5 or 7.5, 22 °C, 150 mM NaCl
Text: enzyme kinetics, triplicate on chorismate mutase (CM) | a similar mutation (E219A)

B1: chorismate mutase (CM) (Saccharomyces cerevisiae S288C; E219A) (protein)
chain: MDFTKPETVLNLQNIRDELVRMEDSIIFKFIERSHFATCPSVYEANHPGLEIPNFKGSFLDWALSNLEIAHSRIRRFESPDETPFFPDKIQKSFLPSINYPQILAPYAPEVNYNDKIKKVYIEKIIPLISKRDGDDKNNFGSVATRDIECLQSLSRRIHFGKFVAEAKFQSDIPLYTKLIKSKDVEGIMKNITNSAVEEKILERLTKKAEVYGVDPTNASGERRITPEYLVKIYKEIVIPITKEVEVEYLLRRLEE
notes: TEV-cleavable tagged CM in pET21a, E. coli BL21*(DE3); 60 kDa homodimer
- Km: 600 ± 200 µM
